Source: the domain aggregation screens of Martell et al. (2025)

Experiment: soluble fraction after stress (log2 fold change); higher = more stays soluble; pooled small domains, quantitative proteomics
Details: stress: 50 degC
Outline: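 Pooled custom libraries of small protein domains were each held under stress at 50°C. The read-out, high-throughput quantitative proteomics, tracked how much of each protein stayed soluble. This is reported as a base-two log fold change used to indicate aggregation propensity. Higher values mean more protein remains in solution.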

Sequence | soluble fraction (log2)
HMKVSFEIEINGVTKSINSINEAKEAISELQDIMDNSTFGSEEFKNAATQIDKLQNKLVEALDK | -0.0374
HMNNQKATAVKVASGIVNLRSGPATSYETLDTVATGETLSVLAEKDGWFQVSRAGRTGWVAGWVVDVIRE | -0.0645
HMENNNIAFSKFLEEVDSGRVVQVEIQGNNISGTLSDGSKFKTYSPNYPDLVSKLSEKNVSIIASPV | 0.115
HMEKGIVSNKTDKGYGFIRSSTGESIFVHINNVGKEAYEQLAKGSRVLFDYEVTDRGKRATKVMLEPSES | 0.0488
HMILALAISSEEDDARIYATYADRLREAYPASARVFEGMVDEEHEHRRRLIDLFQRRFGDTIPLVRREHV | -0.61
HMTYMWTTDGVNLRSEPNTDSAVVTVLGVGTQVRMIGEEDGWVKVSFNDQEGYIRADFLTTE | -0.0926
HMNGADPYEQLGVTRDASDDELKAAHRKLSRENHPDTLMAKGMPPEFIEQANDKMARINAAWDQIRKERGI | 0.26
HMTASTLSYSKFNEQVVQNQVRKVTFQGEQVKGELISGQTFTTTVPANDTTLWPMLKAHNVDTAVTAA | 0.229
HMDFYIVLGVDRAASVSDVKRAYRRLARKYHPDINPGDREAEAFFLRVTEAYETLIDPDRRQDYDVNG | -0.94
HMEALQKVSINYYDEGAGKQIAEVPLEVGAGDTEIALAVINKYMPAEYNLVSTDYQIRGGYVYVSVTPA | -0.072
HMNTSMIEHMDKSTFIRFVFTNPVTHDQAVAKLMEKHMWFSTEEKAEAEIDKLLNKTNSLIESGGKLTW | 0.0337
HMKKIYEEVSEAILTMIKNGTLKPGDKLLPVHQLAEQFQVGRSAVREALSALRAMGLIEMKQGEGTYVKNF | -0.462
HMFNEFEDIPDIISAEGIDPAMREEVAANLKKYYKNPDAMLALAPLEREYYEKLVGILSEKIELKKEN | 0.563
HMAKRMRNPNGYGSIVKLSGNRRNPYMVKVNTHMDERYYPVYDILGYYPTWADASIALAKYNDDPYNVS | -0.453
HMLKHNLLSELSRIEGVGAVKRKALMDKFGTVENIKRASEEELSEVAGIGPTLARTIKEQMNKDE | -0.184
HMPYEHQRAVGALIRRLREQQGWSQRALADWVHMDQSAVSRVETGQRSVTAEELGRFADALHVSTDALVR | -0.291
HMVSEDELLARIALLPYPQAKILLEERLSHDPANAKVRQLYLELAKKSGDHTEVTRHNSLLY | -0.104
HMEQMSLISKKKGERIDKFLGENLGDLSRSYIQKLLKDGLILVNGKKVKANYKLNEGDQIDVEVPDP | 0.303
HMNDYNLTDREKEVLTFLFQGLEYKEIGMKMSVSPNTIRNHISNIYKKLHVTSKTQAIRVFLNN | -2.21
HMSRSLLAALEKLRESHTGSLPASVLSSAQRRSLESFAQTTKSVQMRPSGRGVVFAIINPEVVDKHWRELS | -0.497
HMDTVEALTEQLKKLDKRGEGQIPAPEFKQYMMNMGGKMTAEELDEMMKVADPGKEGVVNIAEFADAL | 0.35
HMAAELHPYGADSYRGDNPPAGYEIKAKEESKKFHTPSSPWYGRTIAEIWFRTEEAAEAAGFINAVK | -0.23
HMSHGSIYFSGKTGLKGSVDINGTVNSINKKIFLKPGNYNFLIKADGYKNLKGSFQISKGDKKFVELVLIP | -1.61

Sequence | soluble fraction (log2)
HMSINTLEVHSLKALENLAESPLLISFSYENEEYNYRLASSDVSLLKKISSNYSDDSDIKGLRFIS | -0.992
HMKQHPTIDLQIGQKLHYKEDVFEVTRFAKDKNGQDMVILKDPSIGSGIEIPWYRSKLEEIIESGQYKIT | 0.413
HMTGKASEIAALLEQRIAAGDYPAGSKLPSERELAASFHVSRNTIRDAIALLAARKIVSTKWGAGTVVLG | -0.139
HMDFEVGTVKWFNTKKGYGFITRDQGEDIFVHFRNIKGQGRRSLSDGERVSFVVTHGDKGLQADQVSP | -1.38
HMGTQKVQVVNGPINVRSGPGPTFEKIGMVEDQAVYQVVSKKDDWFQISLPGNKTAWVAGWLVKEIK | 0.0417
HMGNLIIFYDEGIGSGPLMKAVNDSGVSLVYEYKNLHGIAIRPSAKTNIQDAIAYFQKVNGVLSVEQ | -2.52
HMKNTVGEYRKLKSTTILYSNSDLTGTKYTYLPNTTVKILKNISSTVDYVYIKATNRYAYINIYAYT | -2.75
HMPTQTEELRRRIVADVNAGEPGAKLGSERELAERYGTSRSSLRQVLAALQEAGLIDRVIGRSGGIFISH | -0.0372
HMLETHRRRQIILSLLRESGMLDVDEVAARLVVSPNTIRNDFNALAAEGLLRRIRGGATLAEP | -0.349
HMSSPVIQINTRNDGWIIKLLQPAVEKDVLEGYLADVGLKLQSQMMEKILAAPAGTEFHIKRGSNILTE | 0.00933
HMLRTEYLTVNYAKASEVAELVTASGFLSSRGSITVDERTNTLLLQDTATNIDEVRFMLEQLD | -0.443
HMNKNIKIPNISNLSREDAESVLKESGISVSTEIKEVESDTIEKGKVVKTEPSIGSTVKQGRTITIYISSG | 0.0574
HMLLNTSQLKELYNRYDKKNSSLISIPFSAISDEPLKFYKWYAALFQIELNVKAFADVDSKQIIIYKGTK | -2.51
HMRFQGKISDWNDEKGYGFVEPNGGGTRAFVHIKSFTDLPRRPINGDIIIYETTTDEKNRVQANNISFTR | 0.0181
HMTAQLSITLNGETRRAAAGSIADLVRSLELDPAKVAVERNGLIVPRSTLAEVALGDGDVLEIVHFV | -0.186
HMFPSLSPEEQAVVDVLQRNNDLQINMLSVQSGLTISRLTALLFQLEMKGVIKPLAGGMYHLL | 0.0206
HMPSIGKNILYYRKKRNMTIDELSKKSGVSKSMLSQVEQEKTNPTVVTVWKIARSLDVSINQLLQT | -0.489
HMNRNHVFDSNGPDLRLRGTAQQLFEKYLQLGRDATSGGDRVMAEGYFQHAEHYFRILNAMNQAAMQH | -0.68
HMTLVKRSAMVTAWSEFAGGRVNSKLIALQNGKAGDWIELENPQSGRKLRGRVQSDGSVRLGS | 0.169
HMDNFQFIGYSQQQGQIAVAWIKSLDNGRLVRVEVSDSLEGWRVSDISAQGVNLTKGQQWLMLKRL | -1.73
HMVSLRQQVYDYLRSQMNQGELRPGSAINLGEMSSRFGISRTPLREALLQLETEGFVTIYPRKGIIVN | -0.793
HMADLKRLNEQIHYLGQYLSTKATYKEFLQANNKKIYRSEHQDEIAKYEEAAQFLKRSSPDGTIPTMKDLR | -0.0887
HMRVESVGDRIRRLRKSLGLTQVKLAQMLGIKAPSVVQWESDKTNLSGENLLNAAKLFGVTPDYILYGG | -0.0657

Sequence | soluble fraction (log2)
HMKTEIGQAMRKLRKAKKMTQDTLAEKLGVAPANISRYEKGQQGIEVDKLPTLADALGVSVPEFFAIASG | 0.0437
HMQSLSDQVFFYLKERIINNEMVPGSIISIEKLTSEFGISNTPVREAIVRLAGLDLVTIHRNKNITVS | -2.39
HMSFEITGDELILRFVKDKGGATTEQIRKHWEASNRGGKSDNNLTNLVKSGKLLRSKDPNGPGSLYTAS | -0.231
HMRDQQHNIYLLEKAKRLYEEFLGDNRHIIAAEMARFEAVLETQDAIIIQRAQQQFSEFLNRFDG | -1.63
HMRTQEELVAEVREQMEAMGTIATLYVELYESSEERLVGGVIFEDERHYRFVYEDGLLHYEEEK | -0.206
HMRGINDLSLVDPQGRIRKDGEQYVVAFGRHKGKEISQIISQDPSYLNWLLSPKGIEDDATRELIRTQYS | -0.0415
HMEDLMEERKEHLLSVMKDPAYVPMKQKELAMLLNVPKGLREELNQVLDALVAEGSVVMSKRGKYTIPQ | -0.0312
HMNTISTLEITTKKDIRILDESELLKSKSSKNNIFNYLLASGDFNLLKDKLNEIDEFSDEIISYQLN | -0.611
HMGQAVTMLKAGRLLANAKGTGAPVRSLEPGMLLYPTGVKEGTMWEVEDEMGNKGWVNSTLMETA | -0.212
HMQKPELLAPAGSLEKAKTAFKYGADAVYMGTSNLSLRSRVTVDDDELIKTIEYAHSINKKVYAALNIYAR | 0.00596
HMDFSVTIKGTSFPVMVSLKKMKQVRLKVFPSGEIKLSAPVGTPEKWIVEYLNDKMSWIEEKMDLFVQ | -0.787
HMAAADLNMRAKLADLGGMSYGELSIWEKTHGMEFAAWEHEWEKLNSGTQADGLKFPKHLPEGFPT | 0.0468
HMQAITVNNEGKIFLNTIPVTLEELSSKLESLKSSTPEFPVVIRGDSGSQYQGIMDVLNVVGRLGITQIGL | -0.246
HMGGVIEDDRGQWAHPGEVTKINSNNITMKGVDFPVLGISDTGDKKMMQPGKDYKFDGNSVTEYPMA | -0.197
HMAVKPIDRLRSLMAESNVTDAELQKVVADKGHYAADAPIDSYSEKFISGWLIKYWSQILNLINADRTVL | -0.0363
HMNIAESIRKYRKASGLTQEEMAKRLGVTTPAVSKWENGITNPDIALLAPIARLFHISVDTLLSYR | -0.403
HMAPVEEWAKASVMEDPTLVTETMARIFAQQGQIGKARKAYRHLALTYPAKSTYFAAQLKKLNQR | -0.259
HMDDEELDALKGIPANEYTQEQIKQISEVFHTLQKNEVKDWLNSLQLRNIELPFELRNEVFSQ | 0.159
HMSAATGIINTDNVNIRSGPATTYDAVGRLNQGSSVEILSSRNDWYQIQANSLKGWVRNDLLNVQK | 0.0404
HMPGRVITVMVNGKRVDLPFREEPYIFVDLFRYMDFDVERARGRIQLAINGKKAGYTDIIREGDSIEI | -0.562
HMVQAQGARIREARVQRGLSQAQLGEPRYSGSYISHIENGRRSPGTDVLAFIAARLGLEPGALDS | -0.504
HMSNTIFGINGPVVTVASKDFSMQEMVYVGNERLVGEVISIDDDLTTIQVYEVTTGLKPGEPVVGTGSAM | -0.531
